Assay results reported in patent US5801039.

T1: succinyl-L-alanyl-L-alanyl-L-prolyl-L-phenylalanyl-p-nitroanilide
T1 sequence (peptide, N-terminal succinyl; C-terminal p-nitroanilide): AAPF


Columns and labels:
[1] = target: casein (prepared according to Hammarsten; Merck, Darmstadt, #2242)
[2] = target: T1, succinyl-L-alanyl-L-alanyl-L-prolyl-L-phenylalanyl-p-nitroanilide

Binder	Specific Activity (HPE · mg^-1) [1]	kcat · Km^-1 [2]
BLAP mutant F45 (S3T + V4I + R99S + A188P + V193M + V199I) (enzyme) AQTIPWGISRVQAPAAHNRGLTGSGVKVAVLDTGISTHPDLNIRGGASFVPGEPSTQDGNGHGTHVAGTIAALNNSIGVLGVAPSAELYAVKVLGADGSGAISSIAQGLEWAGNNGMHVANLSLGSPSPSATLEQAVNSATSRGVLVVAASGNSGASSISYPARYANAMAVGATDQNNNRASFSQYGPGLDIMAPGVNIQSTYPGSTYASLNGTSMATPHVAGAAALVKQKNPSWSNVQIRNHLKNTATSLGSTNLYGSGLVNAEAATR	3710 HPE · mg^-1	68000 M⁻¹ s⁻¹
BLAP mutant F11 (S3T + R99S + A188P + V193M + V199I) (enzyme) AQTVPWGISRVQAPAAHNRGLTGSGVKVAVLDTGISTHPDLNIRGGASFVPGEPSTQDGNGHGTHVAGTIAALNNSIGVLGVAPSAELYAVKVLGADGSGAISSIAQGLEWAGNNGMHVANLSLGSPSPSATLEQAVNSATSRGVLVVAASGNSGASSISYPARYANAMAVGATDQNNNRASFSQYGPGLDIMAPGVNIQSTYPGSTYASLNGTSMATPHVAGAAALVKQKNPSWSNVQIRNHLKNTATSLGSTNLYGSGLVNAEAATR	3760 HPE · mg^-1	92000 M⁻¹ s⁻¹
BLAP mutant F43 (S3T + V4I + R99G + A188P + V193M + V199I) (enzyme) AQTIPWGISRVQAPAAHNRGLTGSGVKVAVLDTGISTHPDLNIRGGASFVPGEPSTQDGNGHGTHVAGTIAALNNSIGVLGVAPSAELYAVKVLGADGGGAISSIAQGLEWAGNNGMHVANLSLGSPSPSATLEQAVNSATSRGVLVVAASGNSGASSISYPARYANAMAVGATDQNNNRASFSQYGPGLDIMAPGVNIQSTYPGSTYASLNGTSMATPHVAGAAALVKQKNPSWSNVQIRNHLKNTATSLGSTNLYGSGLVNAEAATR	3780 HPE · mg^-1	99000 M⁻¹ s⁻¹
BLAP mutant F47 (S3T + V4I + S154D + A188P + V193M + V199I) (enzyme) AQTIPWGISRVQAPAAHNRGLTGSGVKVAVLDTGISTHPDLNIRGGASFVPGEPSTQDGNGHGTHVAGTIAALNNSIGVLGVAPSAELYAVKVLGADGRGAISSIAQGLEWAGNNGMHVANLSLGSPSPSATLEQAVNSATSRGVLVVAASGNDGASSISYPARYANAMAVGATDQNNNRASFSQYGPGLDIMAPGVNIQSTYPGSTYASLNGTSMATPHVAGAAALVKQKNPSWSNVQIRNHLKNTATSLGSTNLYGSGLVNAEAATR	3610 HPE · mg^-1	124000 M⁻¹ s⁻¹
BLAP mutant F46 (S3T + V4I + S154E + A188P + V193M + V199I) (enzyme) AQTIPWGISRVQAPAAHNRGLTGSGVKVAVLDTGISTHPDLNIRGGASFVPGEPSTQDGNGHGTHVAGTIAALNNSIGVLGVAPSAELYAVKVLGADGRGAISSIAQGLEWAGNNGMHVANLSLGSPSPSATLEQAVNSATSRGVLVVAASGNEGASSISYPARYANAMAVGATDQNNNRASFSQYGPGLDIMAPGVNIQSTYPGSTYASLNGTSMATPHVAGAAALVKQKNPSWSNVQIRNHLKNTATSLGSTNLYGSGLVNAEAATR	3180 HPE · mg^-1	179000 M⁻¹ s⁻¹
BLAP mutant F44 (S3T + V4I + R99A + A188P + V193M + V199I) (enzyme) AQTIPWGISRVQAPAAHNRGLTGSGVKVAVLDTGISTHPDLNIRGGASFVPGEPSTQDGNGHGTHVAGTIAALNNSIGVLGVAPSAELYAVKVLGADGAGAISSIAQGLEWAGNNGMHVANLSLGSPSPSATLEQAVNSATSRGVLVVAASGNSGASSISYPARYANAMAVGATDQNNNRASFSQYGPGLDIMAPGVNIQSTYPGSTYASLNGTSMATPHVAGAAALVKQKNPSWSNVQIRNHLKNTATSLGSTNLYGSGLVNAEAATR	3750 HPE · mg^-1	103000 M⁻¹ s⁻¹

Further lines, results first:

Specific Activity (HPE · mg^-1) [1]	kcat · Km^-1 [2]	Binder
4000 HPE · mg^-1	297000 M⁻¹ s⁻¹	Bacillus lentus DSM 5483 alkaline protease (BLAP), wild type enzyme (enzyme) AQSVPWGISRVQAPAAHNRGLTGSGVKVAVLDTGISTHPDLNIRGGASFVPGEPSTQDGNGHGTHVAGTIAALNNSIGVLGVAPSAELYAVKVLGADGRGAISSIAQGLEWAGNNGMHVANLSLGSPSPSATLEQAVNSATSRGVLVVAASGNSGASSISYPARYANAMAVGATDQNNNRASFSQYGAGLDIVAPGVNVQSTYPGSTYASLNGTSMATPHVAGAAALVKQKNPSWSNVQIRNHLKNTATSLGSTNLYGSGLVNAEAATR
3670 HPE · mg^-1	156000 M⁻¹ s⁻¹	BLAP variant M131 (S3T + V4I + A188P + V193M + V199I) (enzyme) AQTIPWGISRVQAPAAHNRGLTGSGVKVAVLDTGISTHPDLNIRGGASFVPGEPSTQDGNGHGTHVAGTIAALNNSIGVLGVAPSAELYAVKVLGADGRGAISSIAQGLEWAGNNGMHVANLSLGSPSPSATLEQAVNSATSRGVLVVAASGNSGASSISYPARYANAMAVGATDQNNNRASFSQYGPGLDIMAPGVNIQSTYPGSTYASLNGTSMATPHVAGAAALVKQKNPSWSNVQIRNHLKNTATSLGSTNLYGSGLVNAEAATR
3200 HPE · mg^-1	2600 M⁻¹ s⁻¹	BLAP mutant F55 (S3T + V4I + S154E + A188P + V193M + V199I + L211D) (enzyme) AQTIPWGISRVQAPAAHNRGLTGSGVKVAVLDTGISTHPDLNIRGGASFVPGEPSTQDGNGHGTHVAGTIAALNNSIGVLGVAPSAELYAVKVLGADGRGAISSIAQGLEWAGNNGMHVANLSLGSPSPSATLEQAVNSATSRGVLVVAASGNEGASSISYPARYANAMAVGATDQNNNRASFSQYGPGLDIMAPGVNIQSTYPGSTYASDNGTSMATPHVAGAAALVKQKNPSWSNVQIRNHLKNTATSLGSTNLYGSGLVNAEAATR
4610 HPE · mg^-1	11000 M⁻¹ s⁻¹	BLAP mutant F49 (S3T + V4I + A188P + V193M + V199I + L211D) (enzyme) AQTIPWGISRVQAPAAHNRGLTGSGVKVAVLDTGISTHPDLNIRGGASFVPGEPSTQDGNGHGTHVAGTIAALNNSIGVLGVAPSAELYAVKVLGADGRGAISSIAQGLEWAGNNGMHVANLSLGSPSPSATLEQAVNSATSRGVLVVAASGNSGASSISYPARYANAMAVGATDQNNNRASFSQYGPGLDIMAPGVNIQSTYPGSTYASDNGTSMATPHVAGAAALVKQKNPSWSNVQIRNHLKNTATSLGSTNLYGSGLVNAEAATR
2510 HPE · mg^-1	1300 M⁻¹ s⁻¹	BLAP mutant F54 (S3T + V4I + R99G + A188P + V193M + V199I + L211D) (enzyme) AQTIPWGISRVQAPAAHNRGLTGSGVKVAVLDTGISTHPDLNIRGGASFVPGEPSTQDGNGHGTHVAGTIAALNNSIGVLGVAPSAELYAVKVLGADGGGAISSIAQGLEWAGNNGMHVANLSLGSPSPSATLEQAVNSATSRGVLVVAASGNSGASSISYPARYANAMAVGATDQNNNRASFSQYGPGLDIMAPGVNIQSTYPGSTYASDNGTSMATPHVAGAAALVKQKNPSWSNVQIRNHLKNTATSLGSTNLYGSGLVNAEAATR
